Measured values from publication PMC13478228 (2026).

Tests used:
[1] = biological target: T1, human cytosolic seryl-tRNA synthetase (SerRS), tag-free, purified separately (human, UniProt P49591 1-514); experiment: 80 uM ADPR
[2] = biological target: T1, human cytosolic seryl-tRNA synthetase …; experiment: 2000 uM NAD+
[3] = biological target: T1, human cytosolic seryl-tRNA synthetase …; experiment: 2000 uM ADPR

B1: human sirtuin 2 (SIRT2), C-terminal His tag (enzyme)
chain: MAEPDPSHPLETQAGKVQEAQDSDSDSEGGAAGGEADMDFLRNLFSQTLSLGSQKERLLDELTLEGVARYMQSERCRRVICLVGAGISTSAGIPDFRSPSTGLYDNLEKYHLPYPEAIFEISYFKKHPEPFFALAKELYPGQFKPTICHYFMRLLKDKGLLLRCYTQNIDTLERIAGLEQEDLVEAHGTFYTSHCVSASCRHEYPLSWMKEKIFSEVTPKCEDCQSLVKPDIVFFGESLPARFFSCMQSDFLKVDLLLVMGTSLQVQPFASLISKAPLSTPRLLINKEKAGQSDPFLGMIMGLGGGMDFDSKKAYRDVAWLGECDQGCLALAELLGWKKELEDLVRREHASIDAQSGAGVPNPSTSASPKKSPPPAKDEARTTEREKPQ
Which Kd [1] does the source give for B1 here?
The Kd was 530 nM.

What about the Kd [2] of the same binder?
The Kd was 530 nM.

And the Kd [3]?
Its Kd is 430 nM.
